Assays:
green fluorescent casein = assay: Total protease activity of culture supernatants against fluorescent casein; assay type: biochemical; conditions: 1 L fermentor, pH 5.5, casein FL
Description: The total protease activity of culture supernatant from the quadruple deletion strain M307 was then measured and compared with culture supernatants from the triple deletion strain M277 and the wild type strain M124. Each strain was grown in 2 liter shake flasks with 300 ml TrMM containing 40 g/l lactose, 20 g/l spent grain extract, and 100 mM PIPPS at pH 5.5. Day 7 supernatant samples were taken for total protease assay. The total protein concentrations of the supernatants were measured using the BCA assay with bovine immunoglobulin as the standard. The supernatants were diluted serially 1:2 in sodium citrate buffer at pH 5.5. […] The fluorescence was measured after 1 hour at 485 nm excitation and 530 nm emission.
The full length antibody yield calculated was 20% higher in the gap1 deletion strain from the day 6 sample. […] From the fermentor supernatants, the total protease activity against casein was measured. […]
The protein concentrations were determined from all supernatant samples from day 2-7. […] The fluorescence from the wells was measured after 2, 3, and 4 hours. The readings were done on the Varioskan fluorescent plate reader using 485 nm excitation and 530 nm emission.
The protease activity from the cultivations listed in Table 22.4 was measured in order to determine how the total protease activities were affected by the RNAi. […]

[1] = test system: tryptic and chymotryptic proteases; assay: In vitro inhibitor treatment: rituximab heavy chain degradation in M44 supernatant; assay type: biochemical, Trichoderma reesei; conditions: 100 μM chymostatin or 1 mg/ml SBTI; M44 supernatant 6 mg/ml, pH 5.5
Description: Based on the knowledge that the heavy chain is cleaved by tryptic and chymotryptic proteases, inhibitors of these two enzyme classes were tested against antibody degradation both in vitro and in culture experiments utilizing an antibody producing T. reesei strain. The inhibitors soybean trypsin inhibitor (SBTI) and chymostatin were tested, as they have been previously shown in in vitro experiments to stabilize antibody heavy chains.
Chymostatin and SBTI were analyzed in vitro with culture supernatant. Supernatant from a fed batch fermentor culture was diluted to 6 mg/ml with sodium citrate buffer pH 5.5 (pH 5.5; 28° C.; 20 g/L spent grain extract, 60 g/L lactose). […] The strain was grown in Trichoderma minimal medium supplemented with 20 g/l spent grain extract and 60 g/l lactose at pH 5.5 and 28° C.
To this diluted supernatant 0.05 μg μl of rituximab, 100 μM chymostatin, 1 mg/ml SBTI, or a combination of both inhibitors was added in a total volume of 50 μl and sampled at 0, 1, and 19 hours to assess the early and late degradation of the rituximab antibody heavy chain. The resulting heavy chain products were analyzed by immunoblot using and anti-heavy chain AP conjugated antibody (Sigma #A3188) diluted 1:30,000 in TBST (FIG. 35). […] Additional fragments were generated after 19 hours, the two major products remained.

[2] = test system: M369 human growth hormone strain; assay: hGH production in 24 well cultures with inhibitors and supplements; assay type: cell-based, Trichoderma reesei; conditions: 24 well culture, pH 4.5, day 4 immunoblot
Description: To evaluate what inhibitors would best stabilize production of hGH, 24 well cultures of these strains were performed. The M369 human growth hormone strain (Δpep1Δtsp1Δslp1Δgap1Δgap2) was grown along with single components or with combinations of the following: trypsin and subtilisin inhibitor SBTI, the acidic protease inhibitor peptide SIP, the acidic protease inhibitor peptide LIP, the aspartic protease inhibitor pepstatin A free peptide, pepstatin A immobilized to agarose beads, the trypsin and subtilisin inhibitor BBI from lima bean, the […] chymostatin, and BSA. Three independent wells were chosen for control wells where no inhibitors or supplements were added. These two strains were grown in 3 ml of TrMM with diammonium citrate without ammonium sulfate, 100 mM PIPPS, 20 g/L spent grain extract, 40 g/L lactose adjusted to pH 4.5. The 24 well plates were shaken at 800 rpm, 85% humidity, and 28° C. The cultures were grown for 6 days and covered with an air permeable membrane.
Inhibitors were added first on day 1 and then daily beginning on day 3. 100 μl samples were taken from the culture wells beginning on day 3. The mycelium was spun down for 5 minutes at 13 k and the supernatant collected. […]

B1: SBTI: soybean trypsin inhibitor, trypsin and subtilisin inhibitor (protein)
chain: DFVLDNEGNPLENGGTYYILSDITAFGGIRAAPTGNERCPLTVVQSRNELDKGIGTIISSPYRIRFIAEGHPLSLKFDSFAVIMLCVGIPTEWSVVEDLPEGPAVKIGENKDAMDGWFRLERVSDDEFNNYKLVFCPQQAEDDKCGDIGISIDHDDGTRRLVVSKNKPLVVQFQKLDKESL
protease activity of M507 culture supplemented with inhibitor (green fluorescent casein): protease activity also dropped from day 6 until day 8
rituximab heavy chain fragment formation [1]: inhibited the 38 kD fragment from forming
effect on hGH production [2]: improved production

From patent US11180767B2, “Protease deficient filamentous fungal cells and methods of use thereof” (GLYKOS FINLAND OY, priority 2012, dated 2021)
